Key:
[1] = molecular target: α-domain of Ag43 from UPEC UTI89 (α^43_UTI89) (E. coli O18:K1:H7 UTI89 (UPEC)); test: AUC
[2] = molecular target: α-domain of Ag43 from UPEC UTI89 (α^43_UTI89) (E. coli O18:K1:H7 UTI89 (UPEC)); test: small-angle X-ray scattering
[3] = molecular target: α-domain of Ag43a from UPEC CFT073 (α^43a) (E. coli CFT073 (UPEC)); test: AUC
[4] = molecular target: α-domain of Ag43a from UPEC CFT073 (α^43a) (E. coli CFT073 (UPEC)); test: small-angle X-ray scattering

Substance: α-domain of Ag43 from UPEC UTI89 (α^43_UTI89) (domain or fragment)
- stoichiometry N [1]: 2
- stoichiometry N [2]: 2

Substance: α-domain of Ag43a from UPEC CFT073 (α^43a) (domain or fragment)
- stoichiometry N [3]: 2
- stoichiometry N [4]: 2
